Reference: article PMC2120827

Molecular target: GST-Sox17 (mouse, UniProt Q61473 24-366)
Test: EMSA

Sequence of GST-Sox17 (Q61473 24-366): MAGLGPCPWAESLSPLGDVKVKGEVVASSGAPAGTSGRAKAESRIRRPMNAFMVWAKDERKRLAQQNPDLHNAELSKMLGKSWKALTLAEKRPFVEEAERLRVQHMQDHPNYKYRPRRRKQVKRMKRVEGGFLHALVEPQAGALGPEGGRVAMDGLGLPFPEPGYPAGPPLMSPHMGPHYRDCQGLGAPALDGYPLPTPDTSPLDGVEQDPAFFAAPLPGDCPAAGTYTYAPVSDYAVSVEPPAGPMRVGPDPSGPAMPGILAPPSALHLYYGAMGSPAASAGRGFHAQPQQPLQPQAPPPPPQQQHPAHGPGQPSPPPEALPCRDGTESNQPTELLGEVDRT

Binder: GCAGAACAATGGCGTTAGCTCGCCATTGTTCTG (structured_DNA) [SCS6]
- binding result: binds
